# Where no end group is shown, it is not given here.
# B1: MbIIIb mutant peptide WBM (I262/V264/V265 to glutamic acid) (peptide)
# chain: DEEEEDEESV
# B2: MbIIIb mutant peptide V264G (peptide)
# chain: DEEEIDGVSV
# B3: FITC-labeled MbIIIb peptide (residues 258–267 of human c-MYC) (peptide)
# chain: DEEEIDVVSV
# modifications: also: FITC label (position not given here)
# Target: purified recombinant WDR5 (used for FPA) (UniProt P61964 1-334)
# Experiment: fluorescence polarisation
row,Kd [µM],Binder
1,> 500,B1
2,> 500,B2
3,9.3,B3

# From publication PMC4427524 (Molecular cell, 2015)
